B1: Disabled homolog 1 (Mus musculus), P97318 (parent)
chain: MSTETELQVAVKTSAKKDSRKKGQDRSEATLIKRFKGEGVRYKAKLIGIDEVSAARGDKLCQDSMMKLKGVVAGARSKGEHKQKIFLTISFGGIKIFDEKTGALQHHHAVHEISYIAKDITDHRAFGYVCGKEGNHRFVAIKTAQAAEPVILDLRDLFQLIYELKQREELEKKAQKDKQCEQAVYQTILEEDVEDPVYQYIVFEAGHEPIRDPETEENIYQVPTSQKKEGVYDVPKSQPNSQPLEDFESRFAAATPNRNLSMDFDELLEATKVSAVTQLELFGDMSTPPDITSPPTPATPGDAFLPSSSQTLPGSADVFGSMSFGTAAVPSGYVAMGAVLPSFWGQQPLVQQQIAMGAQPPVAQVIPGAQPIAWGQPGLFPATQQAWPTVAGQFPPAAFMPTQTVMPLAAAMFQGPLTPLATVPGTNDSARSSPQSDKPRQKMGKESFKDFQMVQPPPVPSRKPDQPSLTCTSEAFSSYFNKVGVAQDTDDCDDFDISQLNLTPVTSTTPSTNSPPTPAPRQSSPSKSSASHVSDPTADDIFEEGFESPSKSEEQEAPDGSQASSTSDPFGEPSGEPSGDNISPQDGS
partner: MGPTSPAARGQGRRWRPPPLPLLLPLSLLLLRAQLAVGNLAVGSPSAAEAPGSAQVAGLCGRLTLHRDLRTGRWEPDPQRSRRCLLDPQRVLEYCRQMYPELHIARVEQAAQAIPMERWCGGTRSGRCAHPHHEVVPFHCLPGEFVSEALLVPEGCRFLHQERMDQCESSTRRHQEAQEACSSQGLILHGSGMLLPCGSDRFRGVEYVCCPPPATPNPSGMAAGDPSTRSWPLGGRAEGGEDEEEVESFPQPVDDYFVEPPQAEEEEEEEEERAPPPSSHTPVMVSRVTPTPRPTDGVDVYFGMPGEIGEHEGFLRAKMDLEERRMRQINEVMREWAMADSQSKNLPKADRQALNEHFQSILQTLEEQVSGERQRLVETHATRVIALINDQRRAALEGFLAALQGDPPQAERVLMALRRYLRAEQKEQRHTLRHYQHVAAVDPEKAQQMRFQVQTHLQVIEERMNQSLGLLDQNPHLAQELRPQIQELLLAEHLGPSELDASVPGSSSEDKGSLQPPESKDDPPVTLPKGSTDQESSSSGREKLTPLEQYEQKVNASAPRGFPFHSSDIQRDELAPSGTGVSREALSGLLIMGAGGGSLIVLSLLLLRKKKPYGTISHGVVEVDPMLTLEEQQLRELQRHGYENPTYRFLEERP

Variants of: B1
Details: with aplp1_mouse Aplp1, Q03157

| Variant | effect of a mutation on the interaction |
| --- | --- |
| MSTETELQVAVKTSAKKDSRKKGQDRSEATLIKRFKGEGVRYKAKLIGIDEVSAARGDKLCQDSMMKLKGVVAGARSKGEHKQKIFLTISFGGIKIFDEKTGALQHHHAVHEISYIAKDITDHRAFGYVCGKEGNRRFVAIKTAQAAEPVILDLRDLFQLIYELKQREELEKKAQKDKQCEQAVYQTILEEDVEDPVYQYIVFEAGHEPIRDPETEENIYQVPTSQKKEGVYDVPKSQPNSQPLEDFESRFAAATPNRNLSMDFDELLEATKVSAVTQLELFGDMSTPPDITSPPTPATPGDAFLPSSSQTLPGSADVFGSMSFGTAAVPSGYVAMGAVLPSFWGQQPLVQQQIAMGAQPPVAQVIPGAQPIAWGQPGLFPATQQAWPTVAGQFPPAAFMPTQTVMPLAAAMFQGPLTPLATVPGTNDSARSSPQSDKPRQKMGKESFKDFQMVQPPPVPSRKPDQPSLTCTSEAFSSYFNKVGVAQDTDDCDDFDISQLNLTPVTSTTPSTNSPPTPAPRQSSPSKSSASHVSDPTADDIFEEGFESPSKSEEQEAPDGSQASSTSDPFGEPSGEPSGDNISPQDGS [H136R] | decreasing interaction |
| MSTETELQVAVKTSAKKDSRKKGQDRSEATLIKRFKGEGVRYKAKLIGIDEVSAARGDKLCQDSMMKLKGVVAGARSKGEHKQKIFLTISFGGIKIFDEKTGALQHHHAVHEISYIAKDITDHRAFGYVCGKEGNHRFVAIKTAQAAEPVILDLRDLVQLIYELKQREELEKKAQKDKQCEQAVYQTILEEDVEDPVYQYIVFEAGHEPIRDPETEENIYQVPTSQKKEGVYDVPKSQPNSQPLEDFESRFAAATPNRNLSMDFDELLEATKVSAVTQLELFGDMSTPPDITSPPTPATPGDAFLPSSSQTLPGSADVFGSMSFGTAAVPSGYVAMGAVLPSFWGQQPLVQQQIAMGAQPPVAQVIPGAQPIAWGQPGLFPATQQAWPTVAGQFPPAAFMPTQTVMPLAAAMFQGPLTPLATVPGTNDSARSSPQSDKPRQKMGKESFKDFQMVQPPPVPSRKPDQPSLTCTSEAFSSYFNKVGVAQDTDDCDDFDISQLNLTPVTSTTPSTNSPPTPAPRQSSPSKSSASHVSDPTADDIFEEGFESPSKSEEQEAPDGSQASSTSDPFGEPSGEPSGDNISPQDGS [F158V] | disrupting interaction |
| MSTETELQVAVKTSAKKDSRKKGQDRSEATLIKRFKGEGVRYKAKLIGIDEVSAARGDKLCQDSMMKLKGVVAGARSKGEHKQKIFLTISFGGIKIFDEKTGALQHHHAVHEITYIAKDITDHRAFGYVCGKEGNHRFVAIKTAQAAEPVILDLRDLFQLIYELKQREELEKKAQKDKQCEQAVYQTILEEDVEDPVYQYIVFEAGHEPIRDPETEENIYQVPTSQKKEGVYDVPKSQPNSQPLEDFESRFAAATPNRNLSMDFDELLEATKVSAVTQLELFGDMSTPPDITSPPTPATPGDAFLPSSSQTLPGSADVFGSMSFGTAAVPSGYVAMGAVLPSFWGQQPLVQQQIAMGAQPPVAQVIPGAQPIAWGQPGLFPATQQAWPTVAGQFPPAAFMPTQTVMPLAAAMFQGPLTPLATVPGTNDSARSSPQSDKPRQKMGKESFKDFQMVQPPPVPSRKPDQPSLTCTSEAFSSYFNKVGVAQDTDDCDDFDISQLNLTPVTSTTPSTNSPPTPAPRQSSPSKSSASHVSDPTADDIFEEGFESPSKSEEQEAPDGSQASSTSDPFGEPSGEPSGDNISPQDGS [S114T] | disrupting interaction |
